Target: Glutathione S-transferase (GST) (Schistosoma japonicum) (UniProt P08515)
Assay: FP

Sequence of Glutathione S-transferase (GST) (Schistosoma japonicum) (P08515 2-218): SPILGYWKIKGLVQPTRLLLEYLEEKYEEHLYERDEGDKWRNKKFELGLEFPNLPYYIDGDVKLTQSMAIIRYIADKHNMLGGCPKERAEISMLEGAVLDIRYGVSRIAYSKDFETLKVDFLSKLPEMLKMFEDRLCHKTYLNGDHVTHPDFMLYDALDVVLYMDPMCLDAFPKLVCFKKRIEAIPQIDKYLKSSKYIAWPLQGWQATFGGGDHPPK

With “GGUAGAUACGAUGGANNNNNNNNNNNNNNNNNNNNNNNNNNNNNNCAUGACGCGCAGCCAA [18th RNA pool]” the Kd was 400 nM.
